According to patent US20050064533A1 (ADELAIDE RESEARCH AND INNOVATION, published 2005):
Substitutions are numbered along the chain they refer to. Numbers in names are those of the source.

What was measured:
[1] = target: recombinant MBP (Maltose Binding Protein) alone, negative control (UniProt P0AEX9 27-392 = MBP); test: pulldown on amylose-agarose resin, autoradiography
Method: (§1) FIG. 8. […] The CAD containing C-terminal 100 amino acids of HIF-2a was in vitro translated in the presence of ³⁵S-methionine. […] The resin mixtures were washed before the pulled down proteins were analysed by SDS-PAGE and autoradiography. Lanes 1-3 show 10% of the input translation mixtures.
(§2) Samples were centrifuged 1500 rpm, 30 secs (room temp) to pellet resin, and the supernatant discarded. Resin was then washed three times with 1 ml of the binding buffer. […] After centrifuging 30 secs/1500 rpm, 30 ul of the supernatant was separated by electrophoresis through a 12.5 % polyacrylamide gel. The gel was dried and exposed to autoradiography.

[2] = target: T1, MBP (maltose binding protein) fused to wild type HIF Asparagine Hydroxylase (HNH) (UniProt Q9NWT6 1-349); test: pulldown on amylose-agarose resin, autoradiography
T1 construct: also called MBP-HNH; MBP/FIH-1
Method: as §1, §2

T1 sequence (Q9NWT6 whole entry, the tested form may be a part): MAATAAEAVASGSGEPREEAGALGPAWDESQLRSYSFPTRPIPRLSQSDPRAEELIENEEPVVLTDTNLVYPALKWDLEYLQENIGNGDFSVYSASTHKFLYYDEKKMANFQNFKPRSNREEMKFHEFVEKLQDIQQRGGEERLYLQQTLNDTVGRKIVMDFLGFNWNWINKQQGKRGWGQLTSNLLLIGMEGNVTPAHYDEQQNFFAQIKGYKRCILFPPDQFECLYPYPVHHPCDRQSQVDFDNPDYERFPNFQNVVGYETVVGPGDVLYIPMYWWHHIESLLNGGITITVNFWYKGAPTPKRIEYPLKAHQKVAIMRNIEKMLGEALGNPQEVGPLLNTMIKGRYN

B1: C-terminal 100 amino acids of mouse HIF-2a (775-874), wild type, with N-terminal thioredoxin/6-histidine tag (other)
chain: RGLGQPLRHLPPPQPPSTRSSGENAKTGFPPQCYASQFQDYGPPGAQKVSGVASRLLGPSFEPYLLPELTRYDCEVNVPVPGSSTLLQGRDLLRALDQAT
modifications: in vitro translated in the presence of 35S-methionine (radiolabelled Met)
notes: range 775-874; also called HIF-2a CAD; wild type CAD; not shown: N-terminal thioredoxin/6-histidine tag supplied by the pET32 vector
binding result [1]: no binding

B2: C-terminal 100 amino acids of mouse HIF-2a (775-874), mutant N851A, with N-terminal thioredoxin/6-histidine tag (other)
chain: B1 chain with N77A
modifications: in vitro translated in the presence of 35S-methionine (radiolabelled Met)
notes: range 775-874; also called N851A point mutant CAD; not shown: N-terminal thioredoxin/6-histidine tag supplied by the pET32 vector
binding result [1]: no binding

B3: C-terminal 100 amino acids of mouse HIF-2a (775-874), mutant RLL to AAA, with N-terminal thioredoxin/6-histidine tag (other, UniProt P97481 775-874, looked up)
chain: B1 chain with R55A, L56A, L57A
modifications: in vitro translated in the presence of 35S-methionine (radiolabelled Met)
notes: range 775-874; also called RLL to AAA triple mutant CAD; not shown: N-terminal thioredoxin/6-histidine tag supplied by the pET32 vector
binding result [2]: no binding | binding result [1]: no binding
